From patent publication US20100330094A1 (NOVIMMUNE S A, published 2010)

T1: recombinant human IP-10 (hIP-10) (human, UniProt P02778 22-98)
T1 sequence (looked up): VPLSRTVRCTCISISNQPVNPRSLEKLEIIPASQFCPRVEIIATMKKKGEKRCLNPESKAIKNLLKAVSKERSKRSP

T2: native human IP-10 (hIP-10) (human, UniProt P02778 22-98)
T2 sequence (looked up): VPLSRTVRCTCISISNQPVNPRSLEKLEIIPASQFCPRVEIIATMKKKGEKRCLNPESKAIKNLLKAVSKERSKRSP

B1: CC21R3P4_F4, scFv format (scFv)
chain: QVQLVESGGGVAHSGKSLRLSCAASGFTFSNYGMHWVRQAPGKGLEWLAVISYDGSNRYYADSVKGRFTISRDNSNNTLNLQMSSLRAEDTALYYCAKDAGGPLDYWGRGTLVTVSSSYVLTQPPSVSVAPGQMARITCGGNNIGDKSVQWYQQRPGQAPLLVVYDDSDRPSGIPERFSGSYSRNTATLTISRVEAGDEADYYCQVWDSSSDHPEVVFGGGTKLTVL
B2: CC21R3P1_H6, IgG1 format (antibody, V domains shown)
VH: QVQLVESGGGVAQSGKSLRLSCAASGFTFSNYGMHWVRQAPGKGLEWLAVISYDGSNRYYADSVKGRFTISRDNSNNTLNLQMSSLRAEDTALYYCAKDAGGPLDYWGKGTLVTVSS
VL: VLTQLTQPPSVSLAPGQTATITCGGDNIGRKSVHWYQQKPGQAPVLVVYDDTDRPSGIPERFSGSNSGNTATLTISRVEAGDEADYYCQVWDSSIDHSWVFGGGTKLTVL
B3: CC21R3P4_F4, IgG1 format (antibody, V domains shown)
VH: QVQLVESGGGVAHSGKSLRLSCAASGFTFSNYGMHWVRQAPGKGLEWLAVISYDGSNRYYADSVKGRFTISRDNSNNTLNLQMSSLRAEDTALYYCAKDAGGPLDYWGRGTLVTVSS
VL: SYVLTQPPSVSVAPGQMARITCGGNNIGDKSVQWYQQRPGQAPLLVVYDDSDRPSGIPERFSGSYSRNTATLTISRVEAGDEADYYCQVWDSSSDHPEVVFGGGTKLTVL
B4: CB21R3P6_G7, scFv format (scFv)
chain: QVQLVQSGAEVKKPGSSVTVSCKASGGTFSSFSITWLRQAPGQGLEWMGEITPMFGIANYAQKFQGRVTISADESTSTAYMELSGLTSEDTAMYYCARDGRFDVSDLLTDKPKVTINYNGMDVWGQGTLVTVSSQSVLTQPPSASGTPGQRVTISCSGSSSNIGSNTVNWYQRLPGAAPQLLIYNNDQRPSGIPDRFSGSKSGTSGSLVISGLQSEDEADYYCASWDDSLNGRVFGGGTKLTVL
B5: CC21R3P1_C1a, scFv format (scFv)
chain: QVQLVESGGGVVQPGRSLRLSCAASGFTFSSYGMHWVRQAPGKGLEWVAVISYDGSNKYYADSVKGRFTISRDNSKNTLYLQMNSLRAEDTAVYYCAKDEFDAFDIWGRGTMVTVSSSYVLTQPPSVSVAPGTTARITCGGNNIGSRSVHWYQQKPGQAPLLVIYYDSDRPSGIPLRFSGSNSGNTATLTISRVEAGDEADYYCQVWDTSSGHYVFGTGTKVTVL
B6: CF1H1R3P3_G11, IgG1 format (antibody, V domains shown)
VH: QVQLVESGGGVVQPGRSLRLSCAASGFTFSNSGIHWVRQAPGKGLEWVAVISYDGSNKFYADSVKGRFTISRDNSKNTLYLQMNSLRAEDTAVYYCAKLRDNGEYLDYWGQGTLVTVSS
VL: NFMLTQPHSVSESPGKTVTISCTGSGGSIDRNYVQWYQQRPGSSPTTVIYEDNQRPSGVPDRFSGSIDSSSNSASLTISGLKTEDEADYYCQSYDPLPVWVFGGGTKLTVL
B7: CF1A11R3P3_F3, scFv format (scFv, V domains shown, not shown: small tags and cut ends)
VH: QVQLVESGGGVVQPGRSLRLSCAASGFTFSNSGIHWVRQAPGKGLEWVAVISYDGSNKFYADSVKGRFTISRDNSKNTLYLQMNSLRAEDTAVYYCAKLRDNGEYLDYWGQGTLVTVSS
VL: NFMLTQPHSVSESPGKTVTISCTGSGGSIDRNYVQWYQQRPGSAPITVIYEDNQRPSGVPDRFSGSIDSSSNSASLTISGLRTDDEADYYCQSYDSINLWVFGGGTKVTVL
B8: CF1H1R3P4_B5, IgG1 format (antibody, V domains shown)
VH: QVQLVESGGGVVQPGRSLRLSCAASGFTFSNSGIHWVRQAPGKGLEWVAVISYDGSNKFYADSVKGRFTISRDNSKNTLYLQMNSLRAEDTAVYYCAKLRDNGEYLDYWGQGTLVTVSS
VL: NFMLTQPHSVSESPGKTVTISCTGSGGSIDRNYVQWYQQRPGSSPTTVIYEDNQRPSGVPDRFSGSIDSSSNSASLTISGLKTEDEADYYCQSYVETPEWVFGGGTKLTVL
B9: CF1A11R3P3_F3, IgG1 format (antibody, V domains shown)
VH: QVQLVESGGGVVQPGRSLRLSCAASGFTFSNSGIHWVRQAPGKGLEWVAVISYDGSNKFYADSVKGRFTISRDNSKNTLYLQMNSLRAEDTAVYYCAKLRDNGEYLDYWGQGTLVTVSS
VL: NFMLTQPHSVSESPGKTVTISCTGSGGSIDRNYVQWYQQRPGSAPITVIYEDNQRPSGVPDRFSGSIDSSSNSASLTISGLRTDDEADYYCQSYDSINLWVFGGGTKVTVL
B10: CF1N1R3P4_C7, IgG1 format (antibody, V domains shown)
VH: QVQLVESGGGVVQPGRSLRLSCAASGFTFSNSGIHWVRQAPGKGLEWVAVISYDGSNKFYADSVKGRFTISRDNSKNTLYLQMNSLRAEDTAVYYCAKLRDNAEYTDYWGQGTLVTVSS
VL: NFMLTQPHSVSESPGKTVTISCTGSGGSIDRNYVQWYQQRPGSSPTTVIYEDNQRPSGVPDRFSGSIDSSSNSASLTISGLKTEDEADYYCQSYDPLPVWVFGGGTKLTVL
B11: CB21R3P3_E5, IgG1 format (antibody, V domains shown)
VH: QVQLVESGGGVVQPGRSLRLSCAASGFTFSSYGMHWVRQAPGKGLEWVAVISYDGSIKYYADSVKGRFTISRDNSKNTLYLQMNSLRAEDAAVYYCARAPDGHQLDYWGRGTLVTVSS
VL: NFMLTQPHSVSESPGKTVTISCTGSSGSIASNYVQWYQQRPGSAPTTVIYEDDQRPSDVPDRFSGSIDSSSNSASLTISGLRTEDEADYYCQSYVSSKWVFGGGTKLTVL
B12: CB2R2P4_C3, IgG1 format (antibody, V domains shown)
VH: QVTLRESGPALVKPTQTLTLTCTFSGFSLTTSGMSVIWIRQPPGKALEWLARIDSDDEKHYNTSLKTRLAISKDTSKNQVVLTMTNMDPVDTGTYYCARLRAGSGPYVFDSWGQGTTVTVSS
VL: QSVLTQPPSASGTPGQRVTISCSGSSSNIGSNTVNWYQRLPGAAPQLLIYNNDQRPSGIPDRFSGSKSGTSGSLVISGLQSEDEADYYCASWDDSLNGRVFGGGTKLTVL
B13: CC21R3P1_E7, scFv format (scFv)
chain: QLVESGGGVVQPGRSLRLSCAASGFTFSTYGMHWVRQAPGKGLEWVAVISYDGGTKYYADSVKGRFTISRDNSMKTLYLQMNSLRTEDTAVYYCAKDLGDLPPGLDYWGQGTMVTVSSQSVLTQPPSASGTPGQRVTISCSGSSSNIGSNTVNWYQQLPGAAPKLLIYTNNQRPSGVPDRFSGSKSGTSASLAISGLQSEDEADYYCAAWDDSLNGNVVFGGGTKVTVL
B14: CC21R3P3_C1, scFv format (scFv)
chain: QVQLVESGGGVVQPGRSLRLSCAASGFTFSSYGMHWVRQAPGKGLEWVAVISYDGSIKYYADSVKGRFTISRDNSRNTLYLQMNSLRPEDTAVYYCAKDWGFSGSLTFDYWGQGTMVTVSSSYVLTQPPSVSVAPGKTARITCGGNNIGSKSVHWYQQKPGQAPVLVIYYDSDRPSGIPERFSGSNSGNTATLTISRVEAGDEADYYCQVWDSSSDHVVFGGGTKVTVL
B15: CC21R3P1_E7, IgG1 format (antibody, V domains shown)
VH: QLVESGGGVVQPGRSLRLSCAASGFTFSTYGMHWVRQAPGKGLEWVAVISYDGGTKYYADSVKGRFTISRDNSMKTLYLQMNSLRTEDTAVYYCAKDLGDLPPGLDYWGQGTMVTVSS
VL: not shown
B16: CB21R3P1_F1, scFv format (scFv)
chain: QVQLVESGGGVVRPGRSLRLSCAASGFTFSSYGMHWVRQAPGKGLEWVAVISYDGSIKYYADSVKGRFTISRDNSKNTLYLQMNSLRAEDTAIYYCARVMGTDPHSYYYMDVWGKGTLVTVSSSSELTQDPAVSVALGQTVRITCQGDSLRSYYASWYQRKPGQAPVLVIYGKNNRPSGIPDRFSGSSSGNTASLTITGAQAEDEADYYCNSRDSSGNHVLFGGGTKLTVL
B17: CF1H1R3P4_B5, scFv format (scFv)
chain: QVQLVESGGGVVQPGRSLRLSCAASGFTFSNSGIHWVRQAPGKGLEWVAVISYDGSNKFYADSVKGRFTISRDNSKNTLYLQMNSLRAEDTAVYYCAKLRDNGEYLDYWGQGTLVTVSSNFMLTQPHSVSESPGKTVTISCTGSGGSIDRNYVQWYQQRPGSSPTTVIYEDNQRPSGVPDRFSGSIDSSSNSASLTISGLKTEDEADYYCQSYVETPEWVFGGGTKLTVL
B18: CB2R2P4_C3, scFv format (scFv)
chain: QVTLRESGPALVKPTQTLTLTCTFSGFSLTTSGMSVIWIRQPPGKALEWLARIDSDDEKHYNTSLKTRLAISKDTSKNQVVLTMTNMDPVDTGTYYCARLRAGSGPYVFDSWGQGTTVTVSSQSVLTQPPSASGTPGQRVTISCSGSSSNIGSNTVNWYQRLPGAAPQLLIYNNDQRPSGIPDRFSGSKSGTSGSLVISGLQSEDEADYYCASWDDSLNGRVFGGGTKLTVL
B19: CE7C1R3H8_J9, scFv format (scFv)
chain: QVQLVESGGGVVQPGRSLRLSCAASGFTFSTYGMHWVRQAPGKGLEWVAVISYDGGTKYYADSVKGRFTISRDNSMKTLYLQMNSLRTEDTAVYYCAKDLGDLPPGLDYWGQGTMVTVSSQSVLTQPPSASGTPGQRVTISCSGSSSNIGSNTVNWYQQLPGAAPKLLIYTNNQRPSGVPDRFSGSKSGTSASLAISGLQSEDEADYYCAAWDDSSEPRVVFGGGTKVTVL

Tests used:
Assay in all cases: cell-based or functional assay
[1] = target: T1, recombinant human IP-10 (hIP-10)
[2] = target: T1, recombinant human IP-10 (hIP-10); remark: listed apart in the source
[3] = target: T2, native human IP-10 (hIP-10)

Binder | Calcium flux IC50 (nM); 10 nM hIP-10; hCXCR3 L1.2 cells [1] | Chemotaxis IC50 (nM); 1 nM hIP-10; hCXCR3 L1.2 cells [1] | Calcium flux IC50 (nM); 10 nM rhIP-10 [2] | also measured
B1 | 107 nM | 36 nM | – | –
B2 | – | – | > 200 nM | Chemotaxis IC50 (nM); 1 nM rhIP-10 [2]: 75 nM
B3 | – | – | > 200 nM | Chemotaxis IC50 (nM); 1 nM rhIP-10 [2]: 157 nM
B4 | 46 nM | 10 nM | – | –
B5 | 37 nM | 108 nM | – | –
B6 | – | – | 7.9 nM | Chemotaxis IC50 (nM); 0.2 nM rhIP-10 [2]: 0.2 nM; Chemotaxis IC50 (nM); native hIP-10 at 0.6 nM [3]: 1.9 nM
B7 | 14 nM | 1.8 nM | – | –
B8 | – | – | 4.7 nM | Chemotaxis IC50 (nM); 0.2 nM rhIP-10 [2]: 0.42 nM; Chemotaxis IC50 (nM); native hIP-10 at 0.6 nM [3]: 1.2 nM
B9 | – | – | 5.9 nM | Chemotaxis IC50 (nM); 0.2 nM rhIP-10 [2]: 0.69 nM; Chemotaxis IC50 (nM); native hIP-10 at 0.6 nM [3]: 1.7 nM
B10 | – | – | 4.1 nM | Chemotaxis IC50 (nM); 0.2 nM rhIP-10 [2]: 0.19 nM; Chemotaxis IC50 (nM); native hIP-10 at 0.6 nM [3]: 0.64 nM
B11 | – | – | – | Chemotaxis IC50 (nM); 1 nM rhIP-10 [2]: 122 nM
B12 | – | – | > 200 nM | Chemotaxis IC50 (nM); 1 nM rhIP-10 [2]: 33 nM
B13 | 250 nM | – | – | Chemotaxis IC50 (nM); 2 nM hIP-10; hCXCR3 L1.2 cells [1]: 71 nM
B14 | 71 nM | 72 nM | – | –
B15 | – | – | > 200 nM | Chemotaxis IC50 (nM); 1 nM rhIP-10 [2]: 56 nM
B16 | 36 nM | – | – | Chemotaxis IC50 (nM); 2 nM hIP-10; hCXCR3 L1.2 cells [1]: 40 nM
B17 | 2.4 nM | – | – | Chemotaxis IC50 (nM); 0.2 nM hIP-10; hCXCR3 L1.2 cells [1]: 0.51 nM
B18 | 14 nM | 15 nM | – | –
B19 | – | 0.9 nM | – | –
